Source: patent US6048719

System: DraIII restriction endonuclease (R.DraIII) (Deinococcus radiophilus)
Experiment: cleavage_in_vitro
Conditions: Source-15Q fraction 11; DraIII activity assayed on lambda DNA

## lambda DNA
  activity: 121000 u/ml
